Key:
[1] = molecular target: T1, basic fibroblast growth factor (bFGF) (UniProt P09038 P09038:135-288); assay: filter; PBS; conditions: tags: Bachem California, 18 kDa, 154 aa; 125I-labeled for receptor assays; label: 32P
Method: (§1) In order to eliminate higher order structures, all DNA solutions were heated to 90° C. in PBS for 2–3 minutes and cooled on ice prior to incubation with protein. Relative binding affinity of individual ligands to bFGF cannot be predicted from sequence information. The majority of sequence isolates were therefore screened for their ability to bind to bFGF by measuring the fraction of radiolabeled DNA bound to nitrocellulose filters following incubation with 1 nM protein. […] Binding of these select isolates was then analyzed in more detail.

thrombin (alpha) [2] = molecular target: T2, thrombin (alpha) (human, UniProt P00734;P00734 P00734:328-363,P00734:364-622); assay: filter; specificity, data not shown
[3] = molecular target: vascular endothelial growth factor (VEGF) (UniProt P15692-4 P15692-4:27-191); assay: filter; specificity, data not shown; conditions: chain copies: 2; label: 32P
antithrombin III = antithrombin III (UniProt P01008 P01008:33-464); assay: filter; specificity, data not shown; conditions: label: 32P
acidic FGF = acidic FGF (UniProt P05230 P05230:16-155); assay: filter; specificity, data not shown; conditions: label: 32P
[4] = molecular target: T1, basic fibroblast growth factor (bFGF); assay: filter; PBS, 0.01% HSA, 1 mM DTT, 37 C; +/-0.5; conditions: tags: Bachem California, 18 kDa, 154 aa; 125I-labeled for receptor assays
Method: (§2) This affinity screening allowed identification of those ligands with highest affinity for bFGF. Binding of a group of these ligands was analyzed over a range of bFGF concentrations (FIG. 5) and their dissociation constants.(Kd's) were determined as described (Jellinek et al. (1993) Proc. Natl. Acad. Sci. USA 90:11227–11231) (Table IX). RNA concentrations were determined from their absorbance reading at […] (and were typically <100 pM). Binding reactions were done at 37° C. in phosphate buffered saline containing 0.01% human serum albumin and 1 mM DTT.

[5] = molecular target: T1, basic fibroblast growth factor (bFGF); assay: filter; PBS, 0.01% HSA, 1 mM DTT, 37 C; +/-0.3; conditions: tags: Bachem California, 18 kDa, 154 aa; 125I-labeled for receptor assays
Method: as §2

thrombin (alpha) [6] = molecular target: T2, thrombin (alpha); assay: filter; 50 mM Tris pH 7.5, 100 mM NaCl, 1 mM MgCl2, 37 C
[7] = molecular target: T1, basic fibroblast growth factor (bFGF); assay: filter; conditions: tags: Bachem California, 18 kDa, 154 aa; 125I-labeled for receptor assays
Method: as §1
Those ligands are M225, M19, m234, M235, and D12 (SEQ ID NOS:359, 353, 387, 360, 332). The minimum size of the region necessary for binding was determined to be 35 bases for M225, M19 and D12 (See Truncations, Table XXI M225t3 (SEQ ID NO:364), M19t2 (SEQ ID NO:365), D12t2 (SEQ ID NO:341)). The ligand with the smallest essential sequence, m234, was isolated from Family 2, Experiment 3 and contains 24 nucleotides (m234t2 (SEQ ID NO:391)). The truncated ligands were tested for binding to bFGF. After truncation, ligands M225t3, M19t2, D12t2, M235t2, and m234t2 have kd values of 0.7 nM, 1 nM, 1 nM, 1 nM, and 6 nM respectively (Table XXII). All five of the truncated molecules lost some of their affinity for bFGF in comparison to the full length ligands. The binding affinity is regained when an additional G-C base pair is added to the blunt end stem of M225t3. This molecule is termed M225t3GC (SEQ ID NO:443). The binding of M225t3GC is 0.2 nM compared to 0.7 nM for M225t3 without the additional base pair (Table XXII).

Sequence of antithrombin III (P01008 33-464, one chain of several): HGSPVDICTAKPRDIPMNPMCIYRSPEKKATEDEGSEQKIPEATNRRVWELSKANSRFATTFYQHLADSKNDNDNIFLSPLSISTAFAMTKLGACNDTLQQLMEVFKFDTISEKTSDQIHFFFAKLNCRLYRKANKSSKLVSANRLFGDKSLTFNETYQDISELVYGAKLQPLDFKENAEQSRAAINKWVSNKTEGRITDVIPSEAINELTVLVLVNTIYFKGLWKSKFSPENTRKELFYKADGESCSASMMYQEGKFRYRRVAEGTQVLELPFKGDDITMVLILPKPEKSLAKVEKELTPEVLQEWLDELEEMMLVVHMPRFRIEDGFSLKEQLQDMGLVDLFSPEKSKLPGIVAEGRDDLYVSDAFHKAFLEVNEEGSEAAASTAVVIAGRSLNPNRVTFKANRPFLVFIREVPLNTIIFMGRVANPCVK
T1 sequence (P09038 135-288, one chain of several): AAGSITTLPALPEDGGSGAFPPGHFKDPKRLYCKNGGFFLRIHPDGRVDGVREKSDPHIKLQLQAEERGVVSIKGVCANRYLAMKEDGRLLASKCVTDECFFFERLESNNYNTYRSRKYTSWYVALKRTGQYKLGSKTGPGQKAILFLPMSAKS
Sequence of acidic FGF (P05230 16-155, one chain of several): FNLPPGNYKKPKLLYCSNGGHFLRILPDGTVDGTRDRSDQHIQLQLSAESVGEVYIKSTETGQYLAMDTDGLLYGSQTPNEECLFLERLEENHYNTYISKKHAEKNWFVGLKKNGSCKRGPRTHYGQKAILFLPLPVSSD
Sequence of vascular endothelial growth factor (VEGF) (P15692 other isoform, or with tags, fused parts or gaps): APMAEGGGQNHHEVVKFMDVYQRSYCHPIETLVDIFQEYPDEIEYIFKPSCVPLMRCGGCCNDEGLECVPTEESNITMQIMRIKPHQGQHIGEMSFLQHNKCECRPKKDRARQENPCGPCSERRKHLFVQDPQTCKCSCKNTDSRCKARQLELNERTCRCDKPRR

B1: M235 (ssDNA)
DNA: GGGAGGACGATGCGGGGCTCTGCAAAGGACACAGGTCCTACGCATCAGACGACGACGGGGA
- Kd [1]: 0.2 nM

B2: 26A (ssRNA)
RNA: GGGAGCUCAGAAUAAACGCUCAACGUCAGAAGGCAACGUAUAGGCAAGCACACUUCGACAUGAGGCCCGGAUCCGGC
- Kd (thrombin (alpha) [2]): > 300 nM
- Kd [3]: > 300 nM
- Kd (antithrombin III): > 300 nM
- Kd (acidic FGF): > 300 nM

B3: 2'-NH2 22B (ssRNA)
RNA: GGGAGGACGAUGCGGCGUGGUUCCGUGGGUGGUGAGAUGAGACUUAAUCAGUUCGUAGACCGGUCAGACGACUCGCCCGA
modifications: 2'-NH2 pyrimidines
- Kd [4]: 2.8 nM

B4: 2'-NH2 54A (ssRNA)
RNA: GGGAGACAAGAAUAACGCUCAAACUGUUGUGUGGAAGACAGCGGGUGGUUGAUUCGACAGGAGGCUCACAACAGGC
modifications: 2'-NH2 pyrimidines
- Kd [5]: 1.7 nM

B5: 2'-NH2 53A (ssRNA)
RNA: GGGAGACAAGAAUAACGCUCAAUGAGGAUCGGAUGGGGAGCAGGCGGAGGAAUUCGACAGGAGGCUCACAACAGGC
modifications: 2'-NH2 pyrimidines
- Kd [5]: 1.5 nM

B6: 60-7 (ssDNA)
DNA: AGATGCCTGTCGAGCATGCTGGCGGCGTTGGTGTAGTGGCGCACTGTGGTTGGGCGGAGAGGCTAGGAGTGCATGATGCCGTAGCTAAACTGCTTTGTCGACGGG
- Kd (thrombin (alpha) [6]): 2.5 nM

B7: 30-35 (ssDNA)
DNA: AGATGCCTGTCGAGCATGCTGGGAGTGGTAGGAGTAGGGTTGGAGCCGTAGTAGCTAAACTGCTTTGTCGACGGG
- Kd (thrombin (alpha) [6]): 1.4 nM

B8: 60-27 (ssDNA)
DNA: AGATGCCTGTCGAGCATGCTGGCGTCCGATGATTCAGGTCGTGGTAGGCATTGAGGGATGGGGTCCTGTGGGACTGGCCTGTAGCTAAACTGCTTTGTCGACGGG
- Kd (thrombin (alpha) [6]): 0.96 nM

B9: 60-18 (ssDNA)
DNA: AGATGCCTGTCGAGCATGCTCTTTGGAGACAGTCCGTGGTAGGGCAGGTTGGGGTGACTTCGTGGAAGAAGCGAGACGGTGTAGCTAAACTGCTTTGTCGA
- Kd (thrombin (alpha) [6]): 0.92 nM

B10: 2'-NH2 52B (ssRNA)
RNA: GGGAGGACGAUGCGGGGAGGGGCAGGUUCGAUGCGGGAGCGACUGACCACGAGAAAUGUGCGGGUCAGACGACUCGCCCGA
modifications: 2'-NH2 pyrimidines
- Kd [5]: 2.3 nM

B11: M19 (ssDNA)
DNA: GGGAGGACGATGCGGGGCTATGTAAATTACTGCTGTACTACGCATCAGACGACGACGGGGA
- Kd [1]: 0.3 nM

B12: 30-16 (ssDNA)
DNA: AGATGCCTGTCGAGCATGCTGCCGCTACGAGGGTAGGTGTGGATGCTGCCGTAGCTAAACTGCTTTGTCGACGGG
- Kd (thrombin (alpha) [6]): 9.4 nM

B13: m234t2 (ssDNA)
DNA: CGAGGAGCTTTAGCGCCACAGGTT
- Kd [7]: 6 nM

B14: M19t2 (ssDNA)
DNA: GCGGGGCTATGTAAATTACTGCTGTACTACGCATC
- Kd [7]: 1 nM

B15: m234 (ssDNA)
DNA: GGGAGGACGATGCGGCCCGAGGAGCTTTAGCGCCACAGGTTTGTGCAGACGACGACGGGGA
- Kd [1]: 0.7 nM

B16: 5A (ssRNA)
RNA: GGGAGCUCAGAAUAAACGCUCAAAUCUCCUCCCGUCGAAGCUAACCUGGCCACUUCGACAUGAGGCCCGGAUCCGGC
- Kd (thrombin (alpha) [2]): > 300 nM
- Kd [3]: > 300 nM
- Kd (antithrombin III): > 300 nM
- Kd (acidic FGF): > 300 nM

B17: m206 (ssDNA)
DNA: GGGAGGACGATGCGGACCTGGTGGCTGTGCTTATGTCCCCCTCATCAGACGACGACGGGGA
- Kd [1]: 1.8 nM

B18: 2'-NH2 47B (ssRNA)
RNA: GGGAGGACGAUGCGGAGGGUGGCUGGGAGGACCCGCGGUGAAUCGGUAGCACAGUGAUGUUCGGUCAGACGACUCGCCCGA
modifications: 2'-NH2 pyrimidines
- Kd [5]: 2.9 nM

B19: 2'-NH2 49A (ssRNA)
RNA: GGGAGACAAGAAUAACGCUCAAAUGGUGUGUGGAAGACAGUGGGUGGUUGCAUUCGACAGGAGGCUCACAACAGGC
modifications: 2'-NH2 pyrimidines
- Kd [5]: 1.4 nM

B20: 60-18(38) (ssDNA)
DNA: CAGTCCGTGGTAGGGCAGGTTGGGGTGACTTCGTGGAA
- Kd (thrombin (alpha) [6]): 1.9 nM

B21: 7A (ssRNA)
RNA: GGGAGCUCAGAAUAAACGCUCAAUCGGCGAGCUAACCAAGACACUCGCUGCACUUCGACAUGAGGCCCGGAUCCGGC
- Kd (thrombin (alpha) [2]): > 300 nM
- Kd [3]: > 300 nM
- Kd (antithrombin III): > 300 nM
- Kd (acidic FGF): > 300 nM

B22: 30-14 (ssDNA)
DNA: AGATGCCTGTCGAGCATGCTGTTGTGGTAGGGTTAGGGATGGTAGCGGTTGTAGCTAAACTGCTTTGTCGACGGG
- Kd (thrombin (alpha) [6]): 1 nM

B23: m224 (ssDNA)
DNA: GGGAGGACGATGCGGCACCGAGGAATAACTGACGCCAGGCTGGCGCAGACGACGACGGGGA
- Kd [1]: 1.5 nM

B24: M17 (ssDNA)
DNA: GGGAGGACGATGCGGGGGGCTTTGCAAAAATTGTTAAATCTACCCCAGACGACGACGGGGA
- Kd [1]: 6.9 nM

B25: 2'-NH2 72B (ssRNA)
RNA: GGGAGGACGAUGCGGCUCAGCAUCCAGGAAGGGGACUUGGUAGGGCACCAUCGAGAUCUUGGCGUCAGACGACUCGCCCGA
modifications: 2'-NH2 pyrimidines
- Kd [4]: 3.4 nM

B26: M235t2 (ssDNA)
DNA: GCGGGGCTCTGCAAAGGACACAGGTCCTACGCATCAG
- Kd [7]: 1 nM

B27: M225 (ssDNA)
DNA: GGGAGGACGATGCGGGGCTACGTACCGGGGCTTTGTAAAACCCCGCAGACGACGACGGGGA
- Kd [1]: 0.1 nM

B28: 2'-NH2 58A (ssRNA)
RNA: GGGAGACAAGAAUAACGCUCAAUUAACGGCGUGGUCCGAGGGUGGCGAGUACUUCGACAGGAGGCUCACAACAGGC
modifications: 2'-NH2 pyrimidines
- Kd [5]: 1.4 nM

B29: 30-6 (ssDNA)
DNA: AGATGCCTGTCGAGCATGCTACACCCGTGGTAGGGTAGGATGGGGTGGTCGTAGCTAAACTGCTTTGTCGACGGG
- Kd (thrombin (alpha) [6]): 1.2 nM

B30: D12t2 (ssDNA)
DNA: AGGCCAGGGCTATGCAAATCGCGGCGCCTATGGCC
- Kd [7]: 1 nM

B31: M225t3GC (ssDNA)
DNA: GGCGGGGCTACGTACCGGGGCTTTGTAAAACCCCGCC
- Kd [7]: 0.2 nM

B32: 30-8 (ssDNA)
DNA: AGATGCCTGTCGAGCATGCTGTGAATAGGTAGGGTCGGATGGGCTACGGTGTAGCTAAACTGCTTTGTCGACGGG
- Kd (thrombin (alpha) [6]): 0.4 nM
